One experiment deals with EphA4 (Homo sapiens) (UniProt P54764). The following applies: cited from earlier work.
In experiment [1] the target is T1, endogenous EphA4 (human (endogenous in MCF7, BT-549, KPL4), UniProt P54764-1 20-986).
T1 construct: EphA4 receptor tyrosine kinase, endogenous in human breast cancer cell lines; On cells in the co-IP (ligand added to cells, DSP fixed) and in the PLA; also called ephrin A4 receptor
Nature of the experiment: ELISA; saturation binding; EphA4 captured from BT-549 RIPA lysates on plates coated with EphA4 antibody; dilution series of recombinant hRNase 1 or ephrin-A5 in RIPA buffer overnight at 4 °C; biotin-conjugated detection antibodies; Kd estimated, Scatchard plot. The following applies: one partner purified.

The target in experiment [2] is T1, endogenous EphA4. Nature of the experiment: cell-based or functional assay.

Here are results for 3 molecules from article PMC8119676, “Human ribonuclease 1 serves as a secretory ligand of ephrin A4 receptor and induces breast tumor initiation” (Nature Communications, 2021).

T1 sequence (P54764 20-986): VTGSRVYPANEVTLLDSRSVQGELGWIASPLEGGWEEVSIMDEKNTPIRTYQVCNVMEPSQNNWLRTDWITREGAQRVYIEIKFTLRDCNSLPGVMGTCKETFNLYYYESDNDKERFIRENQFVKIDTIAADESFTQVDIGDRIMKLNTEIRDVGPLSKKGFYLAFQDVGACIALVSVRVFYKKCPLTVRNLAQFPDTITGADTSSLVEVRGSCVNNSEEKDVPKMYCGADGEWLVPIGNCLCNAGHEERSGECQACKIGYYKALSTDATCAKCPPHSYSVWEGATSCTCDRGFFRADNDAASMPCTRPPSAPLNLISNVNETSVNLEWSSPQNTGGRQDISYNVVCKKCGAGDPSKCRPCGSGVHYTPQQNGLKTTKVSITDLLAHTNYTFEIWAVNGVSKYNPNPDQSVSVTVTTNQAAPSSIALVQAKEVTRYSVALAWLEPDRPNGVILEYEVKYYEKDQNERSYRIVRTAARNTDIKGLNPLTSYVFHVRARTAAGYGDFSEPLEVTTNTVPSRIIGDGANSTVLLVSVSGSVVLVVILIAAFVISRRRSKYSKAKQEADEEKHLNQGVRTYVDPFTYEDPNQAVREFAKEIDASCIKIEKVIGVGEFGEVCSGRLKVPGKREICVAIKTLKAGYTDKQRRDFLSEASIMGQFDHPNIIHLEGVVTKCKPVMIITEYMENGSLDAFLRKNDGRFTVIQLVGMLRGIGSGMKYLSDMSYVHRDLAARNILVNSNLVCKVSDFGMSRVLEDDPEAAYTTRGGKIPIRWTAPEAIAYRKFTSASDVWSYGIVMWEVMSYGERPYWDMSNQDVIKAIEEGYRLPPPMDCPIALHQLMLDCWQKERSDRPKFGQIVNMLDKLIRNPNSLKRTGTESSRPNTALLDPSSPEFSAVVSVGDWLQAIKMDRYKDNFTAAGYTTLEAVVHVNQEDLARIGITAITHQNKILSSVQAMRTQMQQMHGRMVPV
Chain of EphA4 (Homo sapiens) (P54764 20-547): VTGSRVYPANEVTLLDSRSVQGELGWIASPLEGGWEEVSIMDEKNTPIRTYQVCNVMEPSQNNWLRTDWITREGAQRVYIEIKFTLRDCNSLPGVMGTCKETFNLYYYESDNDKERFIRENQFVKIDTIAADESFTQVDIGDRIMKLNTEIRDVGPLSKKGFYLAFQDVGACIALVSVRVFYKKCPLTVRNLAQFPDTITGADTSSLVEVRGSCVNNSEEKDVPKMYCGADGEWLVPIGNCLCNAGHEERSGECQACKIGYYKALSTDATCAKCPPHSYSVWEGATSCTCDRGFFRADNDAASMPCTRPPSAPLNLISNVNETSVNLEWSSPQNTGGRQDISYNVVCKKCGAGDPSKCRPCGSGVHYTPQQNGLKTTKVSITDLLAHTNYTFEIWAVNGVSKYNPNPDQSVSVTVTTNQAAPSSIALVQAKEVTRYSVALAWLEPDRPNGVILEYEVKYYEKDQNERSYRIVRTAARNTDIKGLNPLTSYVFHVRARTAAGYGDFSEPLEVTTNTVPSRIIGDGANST

What is called Kd is the free concentration of one partner at which half of the binding sites on the other are occupied at equilibrium, for simple one-to-one binding. In the case of Ephrin-A5 (from UniProt P52803), the Kd with EphA4 (Homo sapiens) is < 10 nM.

B1: recombinant hRNase 1 protein purified from HEK293 cells (enzyme, human, UniProt P07998 29-156, looked up)
chain: KESRAKKFQRQHMDSDSSPSSSSTYCNQMMRRRNMTQGRCKPVNTFVHEPLVDVQNVCFQEKVTCKNGQGNCYKSNSSMHITDCRLTNGSRYPNCAYRTSPKERHIIVACEGSPYVPVHFDASVEDST
modifications: N-linked glycosylation, heterogeneous (glycosylated and non-glycosylated bands; sites reported at Asn-34, Asn-76, Asn-88)
notes: human ribonuclease 1 (hRNase 1), bought recombinant protein; The ELISA methods say only 'recombinant hRNase 1'; also called human ribonuclease 1; source: bought: Sino Biological Inc. #13468-H08H, purified from HEK293 cells
With B1, in the experiment with endogenous EphA4 [1], the Kd was 92.4 nM. For the same molecule, in the experiment with endogenous EphA4 [2], the “EC50 of EphA4 phosphorylation (pY779-EphA4, WB) in BT-549 cells treated with hRNase 1 at various concentrations for 30 min” value amounted to 9.85 nM.

B2: recombinant ephrin-A5 (ligand, UniProt P52803 21-203, looked up)
chain: QDPGSKAVADRYAVYWNSSNPRFQRGDYHIDVCINDYLDVFCPHYEDSVPEDKTERYVLYMVNFDGYSACDHTSKGFKRWECNRPHSPNGPLKFSEKFQLFTPFSLGFEFRPGREYFYISSAIPDNGRRSCLKLKVFVRPTNSCMKTIGVHDRVFDVNDKVENSLEPADDTVHESAEPSRGEN
notes: ephrin-A5, recombinant; 5.6 nM is printed as equivalent to 0.15 μg/ml, which implies about 27 kDa
Consider B2, for which, in the experiment with endogenous EphA4 [1], the Kd was 5.6 nM.
